Four molecules from paper PMC7005851 can be followed below.

Assay [1] concerns the target T1, *^#H chain of ΔLd-6C407 IgG*^#H*^#L (WT VH, all C-region Cys to Ser).
T1 chain: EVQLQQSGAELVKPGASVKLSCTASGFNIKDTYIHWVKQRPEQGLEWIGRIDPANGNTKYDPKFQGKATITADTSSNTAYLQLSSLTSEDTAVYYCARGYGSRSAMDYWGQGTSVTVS
The experiment in a line: sandwich ELISA (anti-human Cκ capture). The conditions noted are these: chain shown with the change; lysates of HEK293 transfectants; empty vector est. 0.15; parent: est. 1.9; read off a plot.

The target of assay [2] is *H chain of ΔLd-3D8 IgG1 variants ΔLd-*HL and ΔLd-*H*L (hinge Cys11 and Cys14 to Ser). Kind of assay: sandwich ELISA (Protein L capture, AP-conjugated anti-human IgG/Fc detection). The conditions noted are these: chain shown with the change; no heat; lysate of ΔLd-3D8 *H*L transfectants; empty vector est. 0.20; parent: est. 2.2; read off a plot. For orientation: An ELISA detects its analyte on a solid surface through an enzyme-linked reagent.

The target in assay [3] is *^#H chain of ΔLd-3D8 IgG*^#H*^#L (WT VH, all C-region Cys to Ser). The experiment in a line: sandwich ELISA (anti-human Cκ capture). The note with it: chain shown with the change; lysates of HEK293 transfectants; empty vector est. 0.15; parent: est. 1.7; read off a plot.
Assay [4] addresses T2, *^#H chain of ΔLd-2C281 IgG*^#H*^#L (WT VH, all C-region Cys to Ser).
T2 chain: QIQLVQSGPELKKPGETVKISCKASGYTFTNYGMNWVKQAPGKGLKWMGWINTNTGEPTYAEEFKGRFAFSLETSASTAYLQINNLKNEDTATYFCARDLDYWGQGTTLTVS
Kind of assay: sandwich ELISA (anti-human Cκ capture). The conditions noted are these: chain shown with the change; lysates of HEK293 transfectants; empty vector est. 0.15; parent: est. 1.4; read off a plot.

B1: m6 (L) and m5 (H), WT ΔLd-6C407 IgG *#H*#L: all C-region Cys of inter- and intrachain disulfide bonds to Ser (residue numbers not printed) (protein)
chain: DIVLTQSPASLAVSLGQRATISCRASKSVSTSGYSYMLWYQQKPGQPPKLLIYLASNLESGVPARFSGSGSGTDFTLNIHPVEEEDAATYYCQHSRELPWTFGGGTKLEIK
Consider B1, for which the response (Abs at 405 nm) in assay [1] was 0.15.

B2: m2 (L) and m1 (H), ΔLd-HL H:Cys11Ser (hinge); H:Cys14Ser (hinge); L:Cys107Ser (Cκ) (protein)
chain: DIVMSQSPSSLAVSAGEKVTMSCKSSQSLFNSRTRKNYLAWYQQKPGQSPKLLIYWASTRESGVPDRFTGSGPGTDFTLTISSVQAEDLAVYYCKQSYYHMYTFGSGTKLEIK
For the molecule B2, the response (Abs at 405 nm) in assay [2] is 2.3.

B3: m2 (L) and m1 (H), WT ΔLd-3D8 IgG *#H*#L: all C-region Cys of inter- and intrachain disulfide bonds to Ser (residue numbers not printed) (protein)
chain: DIVMSQSPSSLAVSAGEKVTMSCKSSQSLFNSRTRKNYLAWYQQKPGQSPKLLIYWASTRESGVPDRFTGSGPGTDFTLTISSVQAEDLAVYYCKQSYYHMYTFGSGTKLEIK
With B3, the response (Abs at 405 nm) in assay [3] was determined as 0.15.

B4: m4 (L) and m3 (H), WT ΔLd-2C281 IgG *#H*#L: all C-region Cys of inter- and intrachain disulfide bonds to Ser (residue numbers not printed) (protein)
chain: DVVMTQTPLSLPVSLGDQASISCRSSQSLVHSNGNTYFHWFLQKPGQSPKLLIYKVSNRFSGVPDRFSGSGSGTDFTLKISRVEAEDLGVYFCSQSTHVPYTFGGGTKLEIK
For B4, in assay [4], the response (Abs at 405 nm) worked out at 0.15.
